Data from the Human Domainome abundance scans (Beltran et al. 2025).
± gives the uncertainty stated by the source.

B1: Far upstream element-binding protein 2, residues 142 to 214; numbered along this chain, Q92945 (parent)
chain: RTSMTEEYRVPDGMVGLIIGRGGEQINKIQQDSGCKVQISPDSGGLPERSVSLTGAPESVQKAKMMLDDIVSR

Variants of: B1
Test: abundance fitness (aPCA) (normalised: wild type 0, dead -1); higher = more abundant; growth selection in yeast, the domain comes from the species named
Details: Homo sapiens

Abundance fitness of substitutions, site by site:
D42: T 0.007 ± 0.053 | P -0.006 ± 0.051 | G -0.097 ± 0.042 | M -0.15 ± 0.057 | L -0.232 ± 0.045 | F -0.163 ± 0.085 | A -0.013 ± 0.049 | S -0.038 ± 0.047 | N -0.069 ± 0.092 | R -0.11 ± 0.039 | K -0.014 ± 0.067 | Y -0.061 ± 0.085 | V -0.125 ± 0.044 | E -0.007 ± 0.053 | W -0.203 ± 0.055
T54: P -0.855 ± 0.057 | A -0.255 ± 0.047 | R -0.256 ± 0.041 | F -0.278 ± 0.089 | E -0.135 ± 0.054 | G -0.586 ± 0.049 | L -0.256 ± 0.047 | K -0.16 ± 0.074 | C -0.2 ± 0.068 | I -0.205 ± 0.078 | Q -0.158 ± 0.06 | D -0.424 ± 0.081 | N -0.327 ± 0.088 | H -0.076 ± 0.077 | M -0.182 ± 0.062
S40: A 0.027 ± 0.042 | T -0.059 ± 0.053 | P -0.011 ± 0.053 | D -0.076 ± 0.067 | E -0.013 ± 0.047 | G -0.042 ± 0.037 | M -0.024 ± 0.068 | V 0.025 ± 0.044 | Y -0.187 ± 0.089 | H -0.078 ± 0.072 | I -0.069 ± 0.095 | Q 0.009 ± 0.055 | L 0.01 ± 0.049 | C -0.057 ± 0.067 | W -0.207 ± 0.055 | N 0.097 ± 0.089 | R -0.029 ± 0.037 | K -0.007 ± 0.065
K36: N 0.073 ± 0.086 | L -0.043 ± 0.047 | V -0.001 ± 0.043 | Q -0.034 ± 0.059 | S -0.066 ± 0.048 | F -0.32 ± 0.081 | A -0.082 ± 0.045 | Y -0.047 ± 0.11 | E -0.036 ± 0.051 | R -0.058 ± 0.04 | I -0.095 ± 0.074 | H -0.06 ± 0.074 | W -0.283 ± 0.051 | P -0.918 ± 0.07 | G -0.431 ± 0.043 | D 0.021 ± 0.067 | C -0.182 ± 0.059 | M -0.03 ± 0.059 | T 0.005 ± 0.056
E48: R -0.12 ± 0.039 | L -0.12 ± 0.041 | D -0.033 ± 0.069 | M -0.047 ± 0.057 | Q -0.038 ± 0.059 | S -0.024 ± 0.045 | P -0.065 ± 0.056 | T 0.006 ± 0.048 | Y 0.103 ± 0.079 | G -0.044 ± 0.039 | K -0.158 ± 0.071 | V -0.103 ± 0.047 | A -0.063 ± 0.043 | H -0.007 ± 0.076 | C -0.169 ± 0.069 | N -0.161 ± 0.12 | I -0.157 ± 0.085 | F -0.109 ± 0.075
R49: K -0.092 ± 0.063 | A -0.021 ± 0.057 | S -0.026 ± 0.052 | P -0.067 ± 0.059 | M -0.127 ± 0.062 | N -0.104 ± 0.13 | W -0.202 ± 0.055 | D -0.386 ± 0.088 | H 0.025 ± 0.089 | V -0.139 ± 0.047 | Q -0.08 ± 0.057 | E -0.267 ± 0.056 | Y -0.379 ± 0.13
S50: W -0.118 ± 0.061 | G -0.071 ± 0.043 | Y -0.137 ± 0.085 | P -0.159 ± 0.055 | F -0.218 ± 0.092 | I 0.126 ± 0.11 | T 0.008 ± 0.055 | Q -0.139 ± 0.057 | K 0.044 ± 0.069 | A -0.04 ± 0.047 | C 0.043 ± 0.071 | R 0.018 ± 0.042 | L -0.067 ± 0.045 | M -0.125 ± 0.064 | V -0.002 ± 0.046 | N -0.085 ± 0.11 | E -0.193 ± 0.059 | D -0.289 ± 0.074
P41: C -0.017 ± 0.084 | I -0.024 ± 0.094 | T -0.05 ± 0.056 | S -0.017 ± 0.049 | A 0.007 ± 0.047 | Y -0.099 ± 0.092 | F -0.122 ± 0.095 | M -0.09 ± 0.067 | D 0.032 ± 0.087 | W -0.299 ± 0.06 | N -0.141 ± 0.083 | E -0.04 ± 0.055 | R -0.061 ± 0.043 | G -0.055 ± 0.044 | H 0.035 ± 0.091 | L -0.172 ± 0.048
S52: H 0.043 ± 0.075 | R 0.01 ± 0.036 | E 0 ± 0.048 | I 0 ± 0.083 | P -0.874 ± 0.065 | F 0.007 ± 0.074 | T 0.068 ± 0.049 | Y 0.097 ± 0.083 | D -0.312 ± 0.067 | M 0.047 ± 0.06 | Q -0.011 ± 0.055 | W 0.01 ± 0.05 | L 0.059 ± 0.041 | A -0.094 ± 0.044 | N -0.177 ± 0.093 | V 0.041 ± 0.041 | C 0.027 ± 0.058 | G -0.249 ± 0.04
P47: N -0.13 ± 0.096 | C -0.014 ± 0.076 | M -0.009 ± 0.07 | R -0.104 ± 0.043 | W -0.32 ± 0.059 | V -0.146 ± 0.057 | G 0.002 ± 0.048 | I -0.168 ± 0.079 | S -0.021 ± 0.049 | K -0.016 ± 0.069 | F -0.14 ± 0.081 | T -0.018 ± 0.057 | D -0.002 ± 0.072 | Q -0.034 ± 0.06 | E -0.06 ± 0.06 | Y -0.028 ± 0.09 | A 0.02 ± 0.048 | L -0.094 ± 0.046
S43: L -0.116 ± 0.048 | K -0.1 ± 0.064 | R -0.023 ± 0.041 | Q -0.027 ± 0.052 | P -0.083 ± 0.044 | G -0.034 ± 0.041 | I -0.098 ± 0.086 | Y -0.189 ± 0.081 | V -0.11 ± 0.049 | F -0.328 ± 0.088 | W -0.212 ± 0.054 | T -0.012 ± 0.048 | N -0.046 ± 0.075 | H -0.113 ± 0.065 | M -0.101 ± 0.07 | E -0.082 ± 0.053 | D -0.031 ± 0.06 | C -0.135 ± 0.066
L53: T -0.648 ± 0.062 | I -0.09 ± 0.11 | R -0.854 ± 0.048 | F -0.491 ± 0.11 | Y -1.04 ± 0.23 | W -0.994 ± 0.08 | P -0.998 ± 0.076 | E -0.869 ± 0.063 | V -0.369 ± 0.047 | A -0.817 ± 0.056 | N -0.634 ± 0.18 | D -0.72 ± 0.1 | C -0.379 ± 0.082 | H -0.733 ± 0.12 | Q -0.784 ± 0.083 | K -1 ± 0.098 | S -0.754 ± 0.061
I39: R -0.645 ± 0.044 | C -0.172 ± 0.075 | K -0.701 ± 0.087 | V -0.045 ± 0.046 | Y -0.386 ± 0.085 | P -0.477 ± 0.052 | D -0.515 ± 0.09 | N -0.578 ± 0.11 | Q -0.543 ± 0.064 | F -0.177 ± 0.09 | L -0.091 ± 0.043 | S -0.572 ± 0.053 | E -0.728 ± 0.076 | G -0.648 ± 0.047 | A -0.457 ± 0.05 | W -0.304 ± 0.055
V51: D -0.834 ± 0.083 | W -0.487 ± 0.055 | R -0.944 ± 0.054 | L 0.019 ± 0.052 | Q -0.947 ± 0.11 | I 0.117 ± 0.085 | S -0.837 ± 0.067 | M -0.122 ± 0.065 | Y -0.5 ± 0.1 | A -0.503 ± 0.045 | E -0.84 ± 0.076 | C -0.189 ± 0.075 | T -0.704 ± 0.068 | F -0.089 ± 0.088 | P -0.847 ± 0.08 | H -1.3 ± 0.23 | G -0.832 ± 0.048
G45: L -0.193 ± 0.05 | E -0.064 ± 0.054 | Y -0.299 ± 0.1 | S -0.113 ± 0.05 | A -0.211 ± 0.05 | D -0.102 ± 0.07 | Q -0.1 ± 0.063 | M -0.208 ± 0.063 | K -0.207 ± 0.066 | W -0.351 ± 0.056 | H -0.011 ± 0.095 | R -0.164 ± 0.042 | C -0.168 ± 0.064 | F -0.218 ± 0.081 | V -0.107 ± 0.046 | N -0.11 ± 0.076 | T -0.079 ± 0.053
L46: M -0.033 ± 0.055 | N -0.144 ± 0.088 | P -0.145 ± 0.06 | T -0.002 ± 0.05 | V -0.104 ± 0.042 | W -0.171 ± 0.047 | F -0.097 ± 0.067 | Y -0.153 ± 0.074 | D -0.045 ± 0.06 | Q -0.052 ± 0.06 | A -0.056 ± 0.051 | S 0.004 ± 0.044 | E -0.037 ± 0.049 | K 0.061 ± 0.063 | C 0.031 ± 0.06 | I -0.145 ± 0.07 | H -0.117 ± 0.085 | G 0.07 ± 0.039
V37: E -0.704 ± 0.064 | D -0.597 ± 0.081 | M -0.14 ± 0.065 | A -0.372 ± 0.048 | T -0.484 ± 0.069 | W -0.916 ± 0.064 | K -0.965 ± 0.089 | Y -0.974 ± 0.15 | Q -0.811 ± 0.081 | I -0.014 ± 0.07 | H -0.962 ± 0.12 | C -0.144 ± 0.068 | R -0.804 ± 0.045 | S -0.815 ± 0.057 | P -0.62 ± 0.065 | G -0.905 ± 0.045 | N -1.21 ± 0.17 | F -0.677 ± 0.1
C35: N -0.914 ± 0.14 | T -0.406 ± 0.058 | Q -0.791 ± 0.087 | L -0.787 ± 0.06 | W -1.19 ± 0.069 | Y -0.847 ± 0.12 | M -0.866 ± 0.082 | R -0.848 ± 0.045 | V -0.209 ± 0.043 | P -0.658 ± 0.068
G44: L -0.125 ± 0.048 | D 0.02 ± 0.066 | C -0.105 ± 0.068 | W -0.338 ± 0.06 | E 0.008 ± 0.054 | R -0.071 ± 0.04 | S -0.09 ± 0.047 | M 0.007 ± 0.069 | P -0.137 ± 0.054 | H -0.083 ± 0.069 | Y -0.084 ± 0.12 | V -0.133 ± 0.045 | T -0.017 ± 0.051 | Q 0.034 ± 0.062 | A -0.051 ± 0.045 | F -0.194 ± 0.096 | K 0.019 ± 0.071 | I -0.339 ± 0.13
Q38: M 0.007 ± 0.069 | H 0.095 ± 0.078 | A 0.02 ± 0.044 | K -0.068 ± 0.067 | G -0.172 ± 0.042 | L -0.112 ± 0.05 | R -0.028 ± 0.039 | F -0.075 ± 0.12 | I -0.038 ± 0.11 | V -0.001 ± 0.048 | N -0.025 ± 0.082 | P -0.831 ± 0.069 | D -0.112 ± 0.075 | C -0.019 ± 0.065 | T 0.033 ± 0.053 | E 0.129 ± 0.054 | Y 0.027 ± 0.097
